Target: dynamin-like protein B (dlpB) of Dictyostelium discoideum (Dictyostelium discoideum (endogenous in AX2)) (UniProt Q54MH8)
Experiment: co-IP; anti-dlpB antibodies on Dynabeads protein G; lysate of partially synchronized (mitotic) wild-type cells (10 °C 16 h, then 10 µM thiabendazole 3.5 h); lysis buffer 150 mM NaCl, 5 mM EGTA, 5 mM EDTA, 1% Triton X-100, 20 mM Tris-HCl pH 7.5; western blot with anti-dlpA and anti-dlpB

Sequence of UniProt Q54MH8 (Q54MH8 whole entry): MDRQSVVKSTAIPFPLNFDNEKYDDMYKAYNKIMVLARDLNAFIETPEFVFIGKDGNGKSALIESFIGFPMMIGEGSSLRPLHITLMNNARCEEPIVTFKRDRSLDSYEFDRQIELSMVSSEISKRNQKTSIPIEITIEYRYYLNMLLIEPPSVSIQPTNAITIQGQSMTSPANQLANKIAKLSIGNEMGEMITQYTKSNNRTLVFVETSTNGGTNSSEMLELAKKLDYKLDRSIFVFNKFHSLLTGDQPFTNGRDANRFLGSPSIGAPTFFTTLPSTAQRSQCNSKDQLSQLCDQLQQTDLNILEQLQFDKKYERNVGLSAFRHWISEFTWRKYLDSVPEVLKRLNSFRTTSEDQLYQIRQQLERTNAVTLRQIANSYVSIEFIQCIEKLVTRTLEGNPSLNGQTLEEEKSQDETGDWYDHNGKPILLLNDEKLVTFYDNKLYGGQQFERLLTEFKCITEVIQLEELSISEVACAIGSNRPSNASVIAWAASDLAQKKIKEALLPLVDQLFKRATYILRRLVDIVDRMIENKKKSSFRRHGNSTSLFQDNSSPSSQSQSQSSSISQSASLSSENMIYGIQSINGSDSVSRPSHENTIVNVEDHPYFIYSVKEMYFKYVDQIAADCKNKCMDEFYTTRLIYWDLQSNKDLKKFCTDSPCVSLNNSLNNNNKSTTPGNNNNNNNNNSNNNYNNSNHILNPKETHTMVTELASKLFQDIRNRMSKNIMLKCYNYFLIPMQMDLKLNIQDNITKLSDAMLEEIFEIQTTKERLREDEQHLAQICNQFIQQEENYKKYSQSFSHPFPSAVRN

B1: dynamin-like protein A (dlpA) of Dictyostelium discoideum (natural protein)
chain: MSVFKKKDKSDDKKKKHDEETPQGTFQPASQSTSNTNLNSLASSVNNGASVGSTNGSTPNNSNGSTPTYNHNNSAEELEKQKKEEDEKRKKSELEAAAAVVAKKKEDEEKQRKEQVELERKRRDEEIRRTNAAAANAANKELNEQVEISSLEQMGKLDPSSTIHDMFSFFPNEVYNSYEKLQYFSRDLNTAVSHPEIVFVGPRSSGKSSLIEAFIGRALNIVGGGNIVGVGGSNANGCSKRVLYLQFTNNIDFEVPKVTIKKDNTIKEFDHDIIVSIEQLNENLAKRNQLTNDYIEEPIYVSIESRTTLNLTLIDSPGLLFDQSQAESNKIESIVSSLLRPSHRLIIAVESCSQDWKSMSMGQYLKKIDPELSRSTFVFTKFHHTVRGFSSTRDINKYLSGTVPDIKGFFVTLPNHQVRASYSEANRFQEKIYQAHKRDMHALEQLQYDKRYERTIGVAPLRRYILNIVWKSYQDTIPRILKHLRSKRQTAEATLNELQKQSSSLDSTKLRSIASNYTVTFLQITEKLLSGTSEGNPSANGQTLDEEKSQQGDCGEWVDAYKEAIYIDPEEWNIPYWSSKLYGGQQLERLMAEFKAVCDNSKISEVKMDDIATASGINKLNNIPNYAWAASDLTSLISRDTFVPLIEQLCERAMYIMKRLTDIADKVIDSRRKSRCIGSSPFGGNGLNNINSGGNNGININDRLSNTDMDSLDQYPFFTHHVKNLYYDFVHRAAKGCKEKCMDEFYSSRTIYWELTEHPDSSLPSIRNDHHETKTAVCQLATKLFDSIRQRITKNVLLKLYNFFLVPMQTDLWNEIQAQITCLSNEQLEQLFEVQATREQLKQEEKKQQQILEKYSQIDEQFLKAASLFCRPLSNPTPSA
**Q.** For B1, which amount of dlpA in the IP fraction as percent of that in supernatant is on record?
**A.** Its amount of dlpA in the IP fraction as percent of that in supernatant is 58%.
